# “And” between values parts separate entries of the source, which are not always exact repeats. Equal values may be shown once. Read-outs that look alike come from different tables or passages of the source.
# T1: cynomolgus monkey beta klotho protein (soluble, used in Biacore) (cynomolgus monkey (Macaca fascicularis), UniProt Q86Z14 53-996 (human entry), limits assumed)
# T1 construct: Protein in solution; also called Cyno KLB; cyKLB
# T1 chain: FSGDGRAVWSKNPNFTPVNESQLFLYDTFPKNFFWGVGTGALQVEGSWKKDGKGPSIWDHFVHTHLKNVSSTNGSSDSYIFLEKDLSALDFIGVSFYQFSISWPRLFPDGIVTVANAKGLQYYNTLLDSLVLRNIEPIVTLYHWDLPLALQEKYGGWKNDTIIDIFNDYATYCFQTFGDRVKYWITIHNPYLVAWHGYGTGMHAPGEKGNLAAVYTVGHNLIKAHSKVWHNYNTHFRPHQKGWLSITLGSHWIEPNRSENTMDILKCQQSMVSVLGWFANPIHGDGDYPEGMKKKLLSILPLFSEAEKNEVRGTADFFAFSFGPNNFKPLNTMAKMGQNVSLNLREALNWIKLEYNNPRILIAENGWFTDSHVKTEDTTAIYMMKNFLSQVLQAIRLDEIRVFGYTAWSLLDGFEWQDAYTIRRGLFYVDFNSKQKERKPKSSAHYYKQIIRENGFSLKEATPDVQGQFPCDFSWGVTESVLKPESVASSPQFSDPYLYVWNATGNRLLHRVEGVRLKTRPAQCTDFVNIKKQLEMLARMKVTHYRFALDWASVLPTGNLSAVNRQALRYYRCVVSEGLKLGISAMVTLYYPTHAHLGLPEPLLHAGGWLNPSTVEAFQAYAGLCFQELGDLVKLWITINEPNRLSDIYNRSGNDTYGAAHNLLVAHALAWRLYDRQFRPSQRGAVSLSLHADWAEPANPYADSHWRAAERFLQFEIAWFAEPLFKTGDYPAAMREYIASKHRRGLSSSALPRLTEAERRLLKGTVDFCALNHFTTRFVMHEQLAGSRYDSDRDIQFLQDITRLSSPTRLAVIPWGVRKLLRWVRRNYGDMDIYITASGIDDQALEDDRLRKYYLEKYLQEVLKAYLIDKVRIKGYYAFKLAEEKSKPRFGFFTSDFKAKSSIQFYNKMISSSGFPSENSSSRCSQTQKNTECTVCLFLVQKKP
# T2: human beta klotho protein (soluble, used in Biacore) (human, UniProt Q86Z14 53-997, limits assumed)
# T2 construct: also called HuKLB; huKLB
# T2 sequence: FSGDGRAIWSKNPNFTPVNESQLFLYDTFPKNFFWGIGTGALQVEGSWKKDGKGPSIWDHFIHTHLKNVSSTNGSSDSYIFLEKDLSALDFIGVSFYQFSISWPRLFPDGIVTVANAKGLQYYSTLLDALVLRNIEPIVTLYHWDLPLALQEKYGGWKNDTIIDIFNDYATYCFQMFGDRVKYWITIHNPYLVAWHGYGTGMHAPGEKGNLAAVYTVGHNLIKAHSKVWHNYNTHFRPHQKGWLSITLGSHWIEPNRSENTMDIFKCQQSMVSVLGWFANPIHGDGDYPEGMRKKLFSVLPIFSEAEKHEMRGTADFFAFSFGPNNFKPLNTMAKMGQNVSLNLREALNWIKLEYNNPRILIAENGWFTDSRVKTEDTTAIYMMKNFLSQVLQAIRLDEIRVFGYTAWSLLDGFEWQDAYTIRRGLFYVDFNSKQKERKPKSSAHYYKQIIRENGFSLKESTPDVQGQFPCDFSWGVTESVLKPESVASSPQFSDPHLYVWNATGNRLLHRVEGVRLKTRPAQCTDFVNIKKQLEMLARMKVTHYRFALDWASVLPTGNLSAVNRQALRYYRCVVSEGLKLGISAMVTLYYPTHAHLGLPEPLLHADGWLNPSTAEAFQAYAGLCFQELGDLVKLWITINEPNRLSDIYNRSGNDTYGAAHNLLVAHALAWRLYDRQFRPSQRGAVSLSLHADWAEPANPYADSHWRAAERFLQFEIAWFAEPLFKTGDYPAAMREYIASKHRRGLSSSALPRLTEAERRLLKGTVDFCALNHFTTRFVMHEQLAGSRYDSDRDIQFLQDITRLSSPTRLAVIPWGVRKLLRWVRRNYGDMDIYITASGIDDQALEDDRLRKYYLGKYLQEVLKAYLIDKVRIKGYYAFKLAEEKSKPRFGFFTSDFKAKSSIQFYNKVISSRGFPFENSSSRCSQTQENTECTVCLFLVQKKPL
# Key:
# [1] = target: T3, human beta klotho / human FGFR1c receptor complex on cells (human, UniProt Q86Z14 1-1044; P11362 22-822); assay: cell-based or functional assay
# Target sequence in this assay (P11362 22-822 limits assumed, one chain of several): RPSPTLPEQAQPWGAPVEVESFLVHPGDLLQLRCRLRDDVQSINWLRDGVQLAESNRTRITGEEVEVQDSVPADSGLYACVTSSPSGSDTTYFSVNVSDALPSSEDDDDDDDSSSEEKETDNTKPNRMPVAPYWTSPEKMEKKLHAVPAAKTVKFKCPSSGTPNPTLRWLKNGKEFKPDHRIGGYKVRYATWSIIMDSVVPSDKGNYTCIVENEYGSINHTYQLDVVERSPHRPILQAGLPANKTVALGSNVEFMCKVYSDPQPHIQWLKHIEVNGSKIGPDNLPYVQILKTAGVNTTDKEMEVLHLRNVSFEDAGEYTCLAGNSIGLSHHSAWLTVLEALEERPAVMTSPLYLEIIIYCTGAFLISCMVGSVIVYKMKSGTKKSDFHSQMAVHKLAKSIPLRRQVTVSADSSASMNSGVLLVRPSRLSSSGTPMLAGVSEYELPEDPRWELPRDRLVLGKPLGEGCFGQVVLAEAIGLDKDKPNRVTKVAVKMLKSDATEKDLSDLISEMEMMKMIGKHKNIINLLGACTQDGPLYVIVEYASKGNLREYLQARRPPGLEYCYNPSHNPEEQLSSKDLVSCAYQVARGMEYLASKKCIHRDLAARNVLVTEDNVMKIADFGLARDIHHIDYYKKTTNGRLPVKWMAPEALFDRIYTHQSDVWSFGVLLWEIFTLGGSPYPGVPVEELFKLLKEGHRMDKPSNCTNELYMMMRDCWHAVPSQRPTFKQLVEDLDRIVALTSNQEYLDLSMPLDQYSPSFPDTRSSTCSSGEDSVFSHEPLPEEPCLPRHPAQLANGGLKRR
# [2] = target: T1, cynomolgus monkey beta klotho protein …; assay: Biacore SPR (as in Example 2)
# [3] = target: T2, human beta klotho protein (soluble, …); assay: Biacore SPR (as in Example 2)
# [4] = target: T3, human beta klotho / human FGFR1c …; assay: cell-based or functional assay; remark: listed apart in the source
# Target sequence in this assay (Q86Z14 whole entry, chain 1 of 2): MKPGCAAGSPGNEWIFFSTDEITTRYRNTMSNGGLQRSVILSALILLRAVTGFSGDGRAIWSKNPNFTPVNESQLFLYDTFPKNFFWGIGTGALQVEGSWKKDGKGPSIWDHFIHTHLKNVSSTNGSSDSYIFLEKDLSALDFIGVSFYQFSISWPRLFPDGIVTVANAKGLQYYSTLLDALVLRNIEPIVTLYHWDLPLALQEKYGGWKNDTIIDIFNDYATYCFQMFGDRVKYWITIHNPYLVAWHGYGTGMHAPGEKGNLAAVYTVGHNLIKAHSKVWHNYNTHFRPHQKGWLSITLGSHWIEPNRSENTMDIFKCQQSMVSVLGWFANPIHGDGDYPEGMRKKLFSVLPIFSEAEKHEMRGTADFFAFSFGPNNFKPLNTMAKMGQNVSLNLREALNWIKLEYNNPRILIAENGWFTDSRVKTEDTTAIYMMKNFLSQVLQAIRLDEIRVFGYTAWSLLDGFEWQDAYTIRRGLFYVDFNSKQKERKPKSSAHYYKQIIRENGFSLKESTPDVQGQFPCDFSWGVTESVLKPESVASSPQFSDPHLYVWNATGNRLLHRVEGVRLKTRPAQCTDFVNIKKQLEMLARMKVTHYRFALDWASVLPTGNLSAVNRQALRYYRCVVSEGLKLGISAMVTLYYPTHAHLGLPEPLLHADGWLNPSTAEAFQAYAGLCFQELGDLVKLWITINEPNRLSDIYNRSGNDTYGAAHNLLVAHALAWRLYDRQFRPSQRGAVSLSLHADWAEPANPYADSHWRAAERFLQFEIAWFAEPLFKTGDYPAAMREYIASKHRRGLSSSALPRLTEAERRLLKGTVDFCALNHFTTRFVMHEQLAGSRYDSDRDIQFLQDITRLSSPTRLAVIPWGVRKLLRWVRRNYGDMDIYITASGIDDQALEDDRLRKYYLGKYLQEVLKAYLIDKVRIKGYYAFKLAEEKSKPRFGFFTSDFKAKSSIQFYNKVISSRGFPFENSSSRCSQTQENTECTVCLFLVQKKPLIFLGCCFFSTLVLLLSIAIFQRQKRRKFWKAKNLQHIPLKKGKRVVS
# Target sequence in this assay (P11362 22-822 limits assumed, chain 2 of 2): as the sequence (P11362 22-822 limits assumed, one chain of several) above
EC50-adipocyte [1] [nM],EC50 reporter assay [1],Kd [2] [nM],Kd [3] [nM],EC50 adipocyte [4] [nM],EC50 reporter assay [4] [nM],Binder
3.4,0.27 nM and 0.51 nM,0.7,0.05,–,–,"antibody 5H23 (antibody, V domains shown, Murine monoclonal antibody from hybridoma; also called 5H23-Alexa647 (labelled form)) VH: QVQLQQSGPELVKPGALVKISCKASGYTFTSYDINWVKQRPGQGLEWIGWIYPGDGSTKYNEKFKGKATLTADKSSRTAYMQLSSLTSENSAVYFCARSDYYGSRSFAYWGQGTLVTVSA VL: DIVLTQSPASLAVSLGQRATISCRASKSVSTSGYVYMHWNQQKPGQPPKLLIYLASYLESGVPARFSGSGSGTDFTLNIHPVEEEDAAIYYCQHSRDLTFPFGGGTKLEIK"
–,–,–,–,11.2,0.6,"humanized 5H23 antibody (VH SEQ ID NO: 271 and VL SEQ ID NO: 276) (antibody, V domains shown, also called h5H23; h5H23 (Prep 1)) VH: QVQLQQSGAEVKKPGASVKVSCKASGYTFTSYDINWVRQAPGQGLEWIGWIYPGDGSTKYNEKFKGKATITRDTSASTAYMELSSLRSEDTAVYFCARSDYYGSRSFAYWGQGTLVTVSS VL: DIVMTQSPDSLAVSLGERATINCRASKSVSTSGYVYMHWYQQKPGQPPKLLIYLASYLESGVPDRFSGSGSGTDFTLTISSVQAEDVAVYYCQHSRDLTFPFGGGTKLEIK"
